Numbering of substitutions follows the chain as printed. Numbers in names are those of the source.
T1: human PRLR on cells (endogenous on T47D, T47D#11, MCF7); introduced in HEK293/hPRLR/STAT5-Luc, 293/hPRLR, … (human, UniProt P16471 25-622)
T1 construct: no tag is stated for these lines; also called prolactin receptor
T1 sequence: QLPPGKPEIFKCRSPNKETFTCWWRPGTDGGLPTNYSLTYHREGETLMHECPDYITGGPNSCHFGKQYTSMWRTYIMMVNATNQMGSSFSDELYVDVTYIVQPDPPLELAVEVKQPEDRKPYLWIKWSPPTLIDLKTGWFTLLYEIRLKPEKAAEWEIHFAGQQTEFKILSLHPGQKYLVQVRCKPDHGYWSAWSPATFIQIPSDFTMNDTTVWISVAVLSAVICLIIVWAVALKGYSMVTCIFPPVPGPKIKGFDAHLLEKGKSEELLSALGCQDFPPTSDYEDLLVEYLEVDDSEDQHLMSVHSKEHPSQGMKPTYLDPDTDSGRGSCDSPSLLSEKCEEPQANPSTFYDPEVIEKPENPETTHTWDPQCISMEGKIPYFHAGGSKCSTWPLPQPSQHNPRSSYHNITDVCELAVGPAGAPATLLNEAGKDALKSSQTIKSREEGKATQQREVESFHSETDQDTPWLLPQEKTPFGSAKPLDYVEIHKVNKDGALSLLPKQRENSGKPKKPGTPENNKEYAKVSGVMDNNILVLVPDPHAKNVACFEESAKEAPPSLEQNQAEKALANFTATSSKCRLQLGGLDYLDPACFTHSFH

T2: human PRLR construct with an HA tag on HEK293/hPRLR cells (human, UniProt P16471 25-622)
T2 sequence: T1 sequence

T3: monkey macaca fascicularis PRLR construct with an HA tag on HEK293/mfPRLR cells (macaca fascicularis, UniProt A0A2K5WXK1 25-619)
T3 construct: stably transfected into HEK293
T3 sequence: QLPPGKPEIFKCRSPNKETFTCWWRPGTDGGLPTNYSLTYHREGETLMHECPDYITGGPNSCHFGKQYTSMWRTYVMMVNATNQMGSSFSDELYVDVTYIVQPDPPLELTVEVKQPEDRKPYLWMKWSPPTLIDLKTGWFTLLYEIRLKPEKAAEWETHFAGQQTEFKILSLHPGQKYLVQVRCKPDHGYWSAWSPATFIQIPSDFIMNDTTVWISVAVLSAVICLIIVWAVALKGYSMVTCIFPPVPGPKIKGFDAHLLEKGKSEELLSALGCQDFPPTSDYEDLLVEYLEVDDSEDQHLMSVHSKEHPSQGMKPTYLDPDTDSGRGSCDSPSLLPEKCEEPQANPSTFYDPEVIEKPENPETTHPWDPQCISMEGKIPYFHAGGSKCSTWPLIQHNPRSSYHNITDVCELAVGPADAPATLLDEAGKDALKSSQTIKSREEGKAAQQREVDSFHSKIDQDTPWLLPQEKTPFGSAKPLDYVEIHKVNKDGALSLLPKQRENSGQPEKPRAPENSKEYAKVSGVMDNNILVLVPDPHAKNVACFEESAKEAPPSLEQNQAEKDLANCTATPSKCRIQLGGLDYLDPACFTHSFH

T4: hPRLR.mmh (soluble monomeric human PRLR) (human)
T4 construct: soluble monomeric PRLR protein
T4 chain: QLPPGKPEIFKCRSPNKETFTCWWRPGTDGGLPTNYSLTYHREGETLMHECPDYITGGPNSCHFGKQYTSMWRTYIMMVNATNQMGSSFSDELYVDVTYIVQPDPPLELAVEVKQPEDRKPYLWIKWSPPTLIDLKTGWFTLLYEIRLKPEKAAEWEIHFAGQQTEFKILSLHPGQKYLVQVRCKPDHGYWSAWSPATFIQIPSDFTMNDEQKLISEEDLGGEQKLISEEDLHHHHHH

T5: hPRLR.mFc (soluble dimeric human PRLR) (human)
T5 construct: dimeric PRLR construct
T5 chain: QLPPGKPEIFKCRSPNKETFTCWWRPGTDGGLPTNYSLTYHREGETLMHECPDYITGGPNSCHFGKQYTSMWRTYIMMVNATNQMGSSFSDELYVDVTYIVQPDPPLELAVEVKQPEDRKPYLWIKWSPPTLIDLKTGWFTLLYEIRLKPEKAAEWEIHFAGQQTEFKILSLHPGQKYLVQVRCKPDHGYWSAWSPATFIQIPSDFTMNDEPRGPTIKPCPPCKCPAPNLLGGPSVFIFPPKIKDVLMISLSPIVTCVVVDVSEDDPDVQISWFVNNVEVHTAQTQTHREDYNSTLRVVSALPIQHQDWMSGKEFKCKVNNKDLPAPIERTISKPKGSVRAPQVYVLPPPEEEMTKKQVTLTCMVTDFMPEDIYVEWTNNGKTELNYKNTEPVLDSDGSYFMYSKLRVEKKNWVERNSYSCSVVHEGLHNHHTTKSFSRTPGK

T6: mfPRLR.mmh (soluble monomeric macaca fascicularis PRLR) (macaca fascicularis)
T6 construct: soluble monomeric PRLR protein; also called macaca fascicularis (mf) PRLR.mmh; monkey PRLR
T6 chain: T4 chain with I76V, A110T, I125M, I158T, T207I

B1: H1H6765P (antibody, human IgG1, V domains shown)
VH: EVQLVESGGGVVRPGGSLRLSCVGSGFSFDDHGMNWVRQGPGKGLEWVSGFNWNGGSTNYAESVKGRFTISRDNARNSLFLQMNSLRAEDTALYYCVRGRSGWFNDAFDVWGPGTMVTVSS
VL: EIVLTQSPGTLSLSPGERATLSCRASQTINSNYLAWYRQKPGQTPRLLIYGTSSRATGIPDRFSGSGSGTDFSLTISRLEPEDFAVFYCQQYAGLPTFGPGTKVDIK
notes: human IgG1 Fc (H1H)
B2: H1H6793P (antibody, human IgG1, V domains shown)
VH: EVQLVESGGGLVQPGGSLRLSCAASGFSFSIYAMSWFRQAPGKGLEWVSAINGRGDGTHYADSVKGRFTISRDNSKTTLYLQMSSLRAEDTAVYYCAKPVMSTNGFDIWGQGTMVTVSS
VL: DIQMTQSPSTLSASVGDRVTITCRASQSISSWLAWYQLKPGKAPKLLIYKASNLESGVPSRFSGSGSGTEFTLTISSLQPDDFATYYCQQYNIYWTFGQGTKVEIK
notes: human IgG1 Fc (H1H)
B3: H1H6762P (antibody, human IgG1, V domains shown)
VH: QVQLVESGGGVVQPGRSLRLSCAASGFTFSHYGMVWVRQPPGKGLEWVALISFDGTTKYYADSVKGRFTISRDNSKNTLYLQMNSLRAEDTAVYFCVGAIAAAAFDLWGRGTLVTVSS
VL: EIVMTQSPATLSVSPGERATLSCRASQSVSSDLAWYQQKPGQAPRLLIYSASARATGIPARFTGSGSGTDFTLTISSLQSEDFAVYYCQQYNNWPMYTFGQGTKLEIK
notes: human IgG1 Fc (H1H)
B4: H1H6975N (antibody, human IgG1, V domains shown)
VH: EVHLVESGGGLVQPGGSLRLSCAASGFTFSSYEMNWVRQTPGKGLEWISHISSRSVIIYYADSVKGRFTISRDNAKNSLFLQMNSLRAEDTAVYFCAGITIFGIPEYWGQGTLVTVSS
VL: EIVLTQSPATLSLSPGERATLSCRASQSVSSYFAWYQQKPGQAPRLLIYDASSRATGIPTRFSGSGSGTDFTLTISSLEPEDFAVYYCQQRSSWPITFGQGTRLEIK
notes: also called H2M6975N
B5: H1H6803P (antibody, human IgG1, V domains shown)
VH: EVQLVESGGGVVRPGGSLRLSCAASGFKFDDYGMTWVRHVPGKGLEWVSGINWNGGRTGYTDSVKGRFTISRDNAKNSLYLQMNSLRAEDTALYHCAGARRDAFDIWGQGTMVTVSS
VL: DIQMTQSPSSLSASIGDRVTITCRASQNIIKYLNWYQQNAGKAPKLLIYTASSLQSGVPSRFSGSGSGTDFTLTISSLQPEDFATYYCQQSSSSPYTFGQGTKLEIK
notes: human IgG1 Fc (H1H)
B6: H1H6800P (antibody, human IgG1, V domains shown)
VH: EVQLVESGGGLVQPGRSLRLSCAASGFTFDGYAMHWVRQGPGKGLEWVSGISWYSDTLGYADSVKGRFTISRDNAKNSLYLQMNSLRTEDTAFYYCAKISSSGWAFDYWGQGTLVTVSS
VL: EIVLTQSPGTLSLSPGERATLSCRASHSVSSAYLAWYQQKPGQTPRLLIYGTSSRATGIPDRFSGSGSGTDFTLTISRLEPEDFAVYYCQQYGSSPLFTFGPGTKVDIK
notes: human IgG1 Fc (H1H)

Target: T1, human PRLR on cells (endogenous on …)
Test: FACS on T47D cells

Binder	FACS Cell Binding (Fold Above Background)
B1	40 fold
B2	43 fold
B3	38 fold
B4	46 fold
B5	39 fold
B6	41 fold

Target: T1, human PRLR on cells (endogenous on …)
Test: cell-based or functional assay

Binder	IC50 of Blocking 5 nM PRL [M] (STAT5-Luc reporter, HEK293/hPRLR/STAT5-Luc cells)	Percent Blocking at 100 nM Antibody (STAT5-Luc reporter)
B1	3.3e-11 M	100%
B2		65%
B3	2.19e-11 M	100%
B4	2.41e-10 M	100%
B5	6.27e-10 M	100%
B6	3.55e-10 M	100%

Target: T2, human PRLR construct with an HA tag on …
Test: FACS on HEK293/hPRLR cells

Binder	FACS Cell Binding (Fold Above Background)
B1	38 fold
B2	2 fold
B3	36 fold
B4	38 fold
B5	39 fold
B6	35 fold

Target: T3, monkey macaca fascicularis PRLR …
Test: FACS on HEK293/mfPRLR cells

Binder	FACS Cell Binding (Fold Above Background)
B1	27 fold
B2	32 fold
B3	26 fold
B4	29 fold
B5	28 fold
B6	29 fold

Target: T4, hPRLR.mmh (soluble monomeric human PRLR)
Test: SPR (Biacore), antibody capture, 37 C
Experimental: (§1) Measurements were conducted on a T200 Biacore instrument. Kinetic association (kₐ) and dissociation (kd) rate constants were determined by processing and fitting the data to a 1:1 binding model using Scrubber 2.0 curve fitting software.

Binder	Kd	T 1/2	koff	kon
B1	0.292 nM	32 min	0.000366 s⁻¹	1.25e+06 M⁻¹ s⁻¹
B2	3.02 nM	11 min	0.00102 s⁻¹	339000 M⁻¹ s⁻¹
B3	0.48 nM	25 min	0.000455 s⁻¹	948000 M⁻¹ s⁻¹
B4	1.29 nM	42.3 min	0.000273 s⁻¹	211000 M⁻¹ s⁻¹
B5	2.83 nM	32 min	0.000364 s⁻¹	129000 M⁻¹ s⁻¹
B6	1.47 nM	10 min	0.00119 s⁻¹	808000 M⁻¹ s⁻¹

Target: T5, hPRLR.mFc (soluble dimeric human PRLR)
Test: SPR (Biacore), antibody capture, 37 C
Experimental: as §1

Binder	Kd	T 1/2	koff	kon
B1	0.128 nM	112 min	0.000103 s⁻¹	801000 M⁻¹ s⁻¹
B2	0.347 nM	81 min	0.000142 s⁻¹	410000 M⁻¹ s⁻¹
B3	0.128 nM	112 min	0.000103 s⁻¹	801000 M⁻¹ s⁻¹
B4	0.184 nM	163 min	7.09e-05 s⁻¹	386000 M⁻¹ s⁻¹
B5	0.461 nM	186 min	6.2e-05 s⁻¹	134000 M⁻¹ s⁻¹
B6	0.229 nM	79 min	0.000147 s⁻¹	644000 M⁻¹ s⁻¹

Target: T6, mfPRLR.mmh (soluble monomeric macaca …)
Test: SPR (Biacore), antibody capture, 37 C
Experimental: as §1

Binder	Kd	T 1/2	koff	kon
B1	0.0504 nM	215 min	5.37e-05 s⁻¹	1.06e+06 M⁻¹ s⁻¹
B2	4.59 nM	11 min	0.00107 s⁻¹	233000 M⁻¹ s⁻¹
B3	0.823 nM	21 min	0.000558 s⁻¹	679000 M⁻¹ s⁻¹
B4	2.27 nM	36.4 min	0.000317 s⁻¹	140000 M⁻¹ s⁻¹
B5	7.28 nM	18 min	0.000636 s⁻¹	87300 M⁻¹ s⁻¹
B6	2.48 nM	11 min	0.00109 s⁻¹	439000 M⁻¹ s⁻¹

From US20180185504A1 (Regeneron, published 2018)
